The values that follow are results of earlier work, collected in PMC8896763.

In series [1] the target is CD58 (Homo sapiens) (UniProt P19256).
Series [2] concerns the target CD48 (Rattus norvegicus) (UniProt P10252).
Series [3] concerns the target CD80 (UniProt P33681).
Series [4] deals with PSGL-1 (Homo sapiens) (UniProt Q14242).
UniProt Q14242, sequence (Q14242 42-320): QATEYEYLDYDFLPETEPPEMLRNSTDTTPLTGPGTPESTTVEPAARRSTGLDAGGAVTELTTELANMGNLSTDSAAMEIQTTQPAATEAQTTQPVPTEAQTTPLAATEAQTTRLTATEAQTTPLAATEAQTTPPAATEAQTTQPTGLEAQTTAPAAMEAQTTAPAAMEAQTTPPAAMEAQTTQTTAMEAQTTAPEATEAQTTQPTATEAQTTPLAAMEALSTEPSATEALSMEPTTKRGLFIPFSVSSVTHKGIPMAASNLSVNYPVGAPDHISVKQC

UniProt P33681, sequence (P33681 35-242): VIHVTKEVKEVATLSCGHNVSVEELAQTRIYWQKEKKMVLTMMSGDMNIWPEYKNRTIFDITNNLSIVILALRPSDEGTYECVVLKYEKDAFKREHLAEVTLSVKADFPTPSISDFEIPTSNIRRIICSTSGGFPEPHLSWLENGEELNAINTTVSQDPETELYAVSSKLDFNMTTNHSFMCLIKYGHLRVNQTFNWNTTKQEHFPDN
UniProt P10252, sequence (P10252 23-217): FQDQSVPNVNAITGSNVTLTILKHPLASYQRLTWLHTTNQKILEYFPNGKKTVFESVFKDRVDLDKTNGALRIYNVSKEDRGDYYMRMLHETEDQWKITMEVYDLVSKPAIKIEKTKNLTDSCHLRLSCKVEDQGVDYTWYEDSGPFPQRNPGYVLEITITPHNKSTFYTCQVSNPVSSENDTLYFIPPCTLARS
UniProt P19256, sequence (P19256 29-215): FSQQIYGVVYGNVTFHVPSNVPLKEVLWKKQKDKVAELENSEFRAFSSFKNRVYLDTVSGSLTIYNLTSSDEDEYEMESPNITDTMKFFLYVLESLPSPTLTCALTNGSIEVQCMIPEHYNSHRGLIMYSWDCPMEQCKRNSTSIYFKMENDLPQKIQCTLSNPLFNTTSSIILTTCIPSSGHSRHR

In general, Kd refers to a measure of binding affinity in units of concentration. With CD2 (from UniProt P06729), the Kd in series [1] is 10 µM.

Turning to CD2 (from UniProt P08921), the Kd in series [2] was 60 µM.

Regarding CD28 (from UniProt P10747), the equilibrium dissociation constant (Kd) in series [3] was 2 µM.

On to P-selectin (from UniProt P16109), for which the Kd in series [4] was 0.3 µM.
